Source: patent publication US20020042382A1 (UNITED STATES OF AMERICA AS REPRESENTED BY THE SECRETARY OF …, published 2002)

T1: Sequestrin GST-R(0-IV) fusion protein (Plasmodium falciparum)
T1 construct: The five domains R0-RIV are said to represent the entirety of amino acids H42-A458; also called domain combination R(0-IV); not shown: glutathione S-transferase fusion partner encoded by vector pGEX-3X (Pharmacia), followed by a Factor Xa site
T1 chain: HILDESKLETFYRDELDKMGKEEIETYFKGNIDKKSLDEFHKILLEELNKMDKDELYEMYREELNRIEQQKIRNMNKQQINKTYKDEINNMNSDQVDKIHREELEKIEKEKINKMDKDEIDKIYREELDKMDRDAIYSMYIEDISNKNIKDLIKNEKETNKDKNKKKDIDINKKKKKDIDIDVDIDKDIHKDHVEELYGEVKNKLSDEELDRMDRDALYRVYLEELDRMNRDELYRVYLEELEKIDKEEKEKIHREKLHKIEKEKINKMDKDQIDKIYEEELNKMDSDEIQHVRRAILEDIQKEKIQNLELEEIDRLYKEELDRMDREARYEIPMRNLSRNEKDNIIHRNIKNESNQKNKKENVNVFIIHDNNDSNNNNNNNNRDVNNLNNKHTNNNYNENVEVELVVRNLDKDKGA

B1: trpE fusion protein representing Sequestrin amino acids H42-A458 (other)
chain: HILDESKLETFYRDELDKMGKEEIETYFKGNIDKKSLDEFHKILLEELNKMDKDELYEMYREELNRIEQQKIRNMNKQQINKTYKDEINNMNSDQVDKIHREELEKIEKEKINKMDKDEIDKIYREELDKMDRDAIYSMYIEDISNKNIKDLIKNEKETNKDKNKKKDIDINKKKKKDIDIDVDIDKDIHKDHVEELYGEVKNKLSDEELDRMDRDALYRVYLEELDRMNRDELYRVYLEELEKIDKEEKEKIHREKLHKIEKEKINKMDKDQIDKIYEEELNKMDSDEIQHVRRAILEDIQKEKIQNLELEEIDRLYKEELDRMDREARYEIPMRNLSRNEKDNIIHRNIKNESNQKNKKENVNVFIIHDNNDSNNNNNNNNRDVNNLNNKHTNNNYNENVEVELVVRNLDKDKGA
notes: Tested in a bacterial extract, blotted
B2: CD36 (purified) (receptor)
chain: GCDRNCGLIAGAVIGAVLAVFGGILMPVGDLLIQKTIKKQVVLEEGTIAFKNWVKTGTEVYRQFWIFDVQNPQEVMMNSSNIQVKQRGPYTYRVRFLAKENVTQDAEDNTVSFLQPNGAIFEPSLSVGTEADNFTVLNLAVAAASHIYQNQFVQMILNSLINKSKSSMFQVRTLRELLWGYRDPFLSLVPYPVTTTVGLFYPYNNTADGVYKVFNGKDNISKVAIIDTYKGKRNLSYWESHCDMINGTDAASFPPFVEKSQVLQFFSSDICRSIYAVFESDVNLKGIPVYRFVLPSKAFASPVENPDNYCFCTEKIISKNCTSYGVLDISKCKEGRPVYISLPHFLYASPDVSEPIDGLNPNEEEHRTYLDIEPITGFTLQFAKRLQVNLLVKPSEKIQVLKNLKRNYIVPILWLNETGTIGDEKANMFRSQVTGKINLLGLIEMILLSVGVVMFVAFMISYCACRSKTIK
modifications: 125I-labelled where used as probe
notes: Purified protein, a gift from Dr. N. Tandon; Used 125I-labelled in solution or coated on plates or dishes; also called 125I-CD36; radiolabelled human CD36

How the values were obtained:
radiolabeled ICAM-1 = radiolabeled ICAM-1 (UniProt P05362 28-532, radiolabelled); assay: bacterial extracts blotted and probed with radiolabeled ICAM-1
[1] = molecular target: T1, Sequestrin GST-R(0-IV) fusion protein; assay: competition of 125I-CD36 binding to plate-coated GST-R(0-IV) by unlabeled CD36, gamma counting

Chain of radiolabeled ICAM-1 (P05362 28-532 limits assumed): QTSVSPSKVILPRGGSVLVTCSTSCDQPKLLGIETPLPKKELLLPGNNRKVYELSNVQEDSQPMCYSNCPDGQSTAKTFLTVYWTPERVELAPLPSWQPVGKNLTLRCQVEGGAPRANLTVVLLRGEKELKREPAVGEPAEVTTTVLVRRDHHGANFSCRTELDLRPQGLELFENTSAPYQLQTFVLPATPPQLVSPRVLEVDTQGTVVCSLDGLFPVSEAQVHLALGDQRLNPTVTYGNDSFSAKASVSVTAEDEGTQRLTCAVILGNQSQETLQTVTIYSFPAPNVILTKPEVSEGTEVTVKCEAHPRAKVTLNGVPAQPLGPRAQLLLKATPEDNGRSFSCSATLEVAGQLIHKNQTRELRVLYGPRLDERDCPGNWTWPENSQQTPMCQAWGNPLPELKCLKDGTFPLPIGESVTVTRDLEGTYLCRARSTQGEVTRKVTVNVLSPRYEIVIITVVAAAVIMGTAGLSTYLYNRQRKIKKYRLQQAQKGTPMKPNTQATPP

Binder | binding result (radiolabeled ICAM-1) | Ki [1]
B1 | no binding | –
B2 | – | ~6 nM
